The values below are quoted from earlier work in PMC4586255.

Like-named read-outs stand apart in the source and are kept apart here.

For series [1], the target named is PCNA (Homo sapiens) (UniProt P12004).
The target is the same in series [2]. This is another data set of the same source.

Chain of PCNA (Homo sapiens) (P12004 whole entry): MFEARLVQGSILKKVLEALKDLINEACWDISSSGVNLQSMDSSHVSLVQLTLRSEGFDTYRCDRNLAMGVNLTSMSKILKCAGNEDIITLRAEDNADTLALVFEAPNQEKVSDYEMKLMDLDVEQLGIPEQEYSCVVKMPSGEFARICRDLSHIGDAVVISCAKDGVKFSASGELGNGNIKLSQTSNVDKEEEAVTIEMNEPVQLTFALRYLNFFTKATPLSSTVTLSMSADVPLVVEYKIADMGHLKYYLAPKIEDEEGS
Chain of FEN1 PIP-box peptide PIP-box peptide (P39748 331-350): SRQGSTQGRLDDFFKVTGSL
Chain of p21 PIP-box peptide PIP-box peptide (P38936 139-160): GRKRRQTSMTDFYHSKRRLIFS

Consider “FEN1 PIP-box peptide PIP-box peptide (from UniProt P39748)”, for which the Kd (commonly the constant that tells how readily two partners part at equilibrium) with PCNA (Homo sapiens) [1] was 59 µM. Consider “p21 PIP-box peptide PIP-box peptide (from UniProt P38936)”, for which the Kd in the series with PCNA (Homo sapiens) [2] was 0.082 µM.
